B1: Beta-taxilin (Homo sapiens), Q8N3L3 (parent)
chain: MEANHSEQLSAERQSTPPGDSSSLPSHNGLEKEDGQDSPTPVQPPEKEASVHPDISEELNRQLEDIINTYGSAASTAGKEGSARASEQPENAESPDNEDGDCEETTEEAGREPVASGEPPTVKEPVSNKEQKLEKKILKGLGKEANLLMQNLNKLQTPEEKFDFLFKKYAELLDEHRTEQKKLKLLQKKQVQIQKEKDQLQGEHSRAILARSKLESLCRELQRHNKTLKEEALQRAREEEEKRKEITSHFQSTLTDIQGQIEQQSERNMKLCQENTELAEKLKSIIDQYELREEHLDKIFKHRELQQKLVDAKLEQAQEMMKEAEERHKREKEYLLNQAAEWKLQAKVLKEQETVLQAQLTLYSGRFEEFQSTLTKSNEVFATFKQEMDKTTKKMKKLEKDTATWKARFENCNKALLDMIEEKALRAKEYECFVMKIGRLENLCRALQEERNELHKKIRDAEISEKDDQSQHNSDEEPESNVSVDQEIDAEEVNSVQTAVKNLATAFMIIHHPESTPHQSKETQPEIGSSQESADAALKEPEQPPLIPSRDSESPLPPLTPQAEAEGGSDAEPPSKASNSPAGLGAETQCEGLPVGAQADQASWKPEAEASGQAPQAPTEASLQKMEADVPAPACAAEEHVAAMVPACEPSRQPPRAAAEELPVGASAGPQPRNVADTNLEGVD
partner: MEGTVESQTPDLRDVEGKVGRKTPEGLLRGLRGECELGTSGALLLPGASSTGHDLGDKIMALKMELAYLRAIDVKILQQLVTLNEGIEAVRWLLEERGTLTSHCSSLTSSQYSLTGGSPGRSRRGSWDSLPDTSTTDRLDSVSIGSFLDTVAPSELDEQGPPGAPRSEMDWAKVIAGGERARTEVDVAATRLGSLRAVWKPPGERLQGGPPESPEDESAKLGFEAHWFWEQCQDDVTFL
B2: Germ cell-less protein-like 1 (Homo sapiens), Q96IK5 (parent)
chain: MGSLSSRVLRQPRPALAQQAQGARAGGSARRPDTGDDAAGHGFCYCAGSHKRKRSSGSFCYCHPDSETDEDEEEGDEQQRLLNTPRRKKLKSTSKYIYQTLFLNGENSDIKICALGEEWSLHKIYLCQSGYFSSMFSGSWKESSMNIIELEIPDQNIDVEALQVAFGSLYRDDVLIKPSRVVAILAAACLLQLDGLIQQCGETMKETVNVKTVCGYYTSAGTYGLDSVKKKCLEWLLNNLMTHQNVELFKELSINVMKQLIGSSNLFVMQVEMDIYTALKKWMFLQLVPSWNGSLKQLLTETDVWFSKQRKDFEGMAFLETEQGKPFVSVFRHLRLQYIISDLASARIIEQDAVVPSEWLSSVYKQQWFAMLRAEQDSEVGPQEINKEELEGNSMRCGRKLAKDGEYCWRWTGFNFGFDLLVTYTNRYIIFKRNTLNQPCSGSVSLQPRRSIAFRLRLASFDSSGKLICSRTTGYQILTLEKDQEQVVMNLDSRLLIFPLYICCNFLYISPEKKN
partner: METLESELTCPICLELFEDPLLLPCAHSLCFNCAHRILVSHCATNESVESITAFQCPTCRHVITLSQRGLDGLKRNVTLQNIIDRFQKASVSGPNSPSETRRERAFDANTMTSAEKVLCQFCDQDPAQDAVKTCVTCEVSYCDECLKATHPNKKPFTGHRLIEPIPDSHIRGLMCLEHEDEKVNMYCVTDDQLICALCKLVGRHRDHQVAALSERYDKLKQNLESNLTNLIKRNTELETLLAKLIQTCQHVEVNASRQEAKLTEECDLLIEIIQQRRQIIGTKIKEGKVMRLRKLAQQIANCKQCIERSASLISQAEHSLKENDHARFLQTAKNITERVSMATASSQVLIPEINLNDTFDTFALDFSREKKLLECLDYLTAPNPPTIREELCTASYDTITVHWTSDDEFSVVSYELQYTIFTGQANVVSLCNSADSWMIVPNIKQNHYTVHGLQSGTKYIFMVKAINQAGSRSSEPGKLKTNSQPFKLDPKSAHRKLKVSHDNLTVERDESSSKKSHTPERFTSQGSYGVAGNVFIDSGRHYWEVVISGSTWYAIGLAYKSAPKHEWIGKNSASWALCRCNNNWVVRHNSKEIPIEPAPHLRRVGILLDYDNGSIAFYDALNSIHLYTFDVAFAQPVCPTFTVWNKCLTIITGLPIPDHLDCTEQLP
B3: Emerin (Homo sapiens), P50402 (parent)
chain: MDNYADLSDTELTTLLRRYNIPHGPVVGSTRRLYEKKIFEYETQRRRLSPPSSSAASSYSFSDLNSTRGDADMYDLPKKEDALLYQSKGYNDDYYEESYFTTRTYGEPESAGPSRAVRQSVTSFPDADAFHHQVHDDDLLSSSEEECKDRERPMYGRDSAYQSITHYRPVSASRSSLDLSYYPTSSSTSFMSSSSSSSSWLTRRAIRPENRAPGAGLGQDRQVPLWGQLLLFLVFVIVLFFIYHFMQAEEGNPF
partner: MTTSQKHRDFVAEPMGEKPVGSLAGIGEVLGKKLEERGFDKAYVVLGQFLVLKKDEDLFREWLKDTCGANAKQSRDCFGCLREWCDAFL
B4: Ornithine decarboxylase antizyme 3 (Homo sapiens), Q9UMX2 (parent)
chain: MPCKRCRPSVYSLSYIKRGKTRNYLYPIWSPYAYYLYCYKYRITLREKMLPRCYKSITYKEEEDLTLQPRSCLQCSESLVGLQEGKSTEQGNHDQLKELYSAGNLTVLATDPLLHQDPVQLDFHFRLTSQTSAHWHGLLCDRRLFLDIPYQALDQGNRESLTATLEYVEEKTNVDSVFVNFQNDRNDRGALLRAFSYMGFEVVRPDHPALPPLDNVIFMVYPLERDVGHLPSEPP
partner: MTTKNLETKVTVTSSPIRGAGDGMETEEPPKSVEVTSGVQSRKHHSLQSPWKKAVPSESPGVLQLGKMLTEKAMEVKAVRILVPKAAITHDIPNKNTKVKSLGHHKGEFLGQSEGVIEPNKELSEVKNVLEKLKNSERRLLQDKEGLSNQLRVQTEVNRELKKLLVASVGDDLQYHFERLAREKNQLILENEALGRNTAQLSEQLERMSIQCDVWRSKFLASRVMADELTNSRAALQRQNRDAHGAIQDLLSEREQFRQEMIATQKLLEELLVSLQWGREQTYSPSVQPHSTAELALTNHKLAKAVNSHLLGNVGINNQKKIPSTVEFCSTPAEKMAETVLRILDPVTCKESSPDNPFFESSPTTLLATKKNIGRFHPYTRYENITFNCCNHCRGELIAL
B5: Spermatogenesis-associated protein 2 (Homo sapiens), Q9UM82 (parent)
chain: MGKPSSMDTKFKDDLFRKYVQFHESKVDTTTSRQRPGSDECLRVAASTLLSLHKVDPFYRFRLIQFYEVVESSLRSLSSSSLRALHGAFSMLETVGINLFLYPWKKEFRSIKTYTGPFVYYVKSTLLEEDIRAILSCMGYTPELGTAYKLRELVETLQVKMVSFELFLAKVECEQMLEIHSQVKDKGYSELDIVSERKSSAEDVRGCSDALRRRAEGREHLTASMSRVALQKSASERAAKDYYKPRVTKPSRSVDAYDSYWESRKPPLKASLSLRKEPVATDVGDDLKDEIIRPSPSLLTMASSPHGSPDVLPPASPSNGPALLRGTYFSTQDDVDLYTDSEPRATYRRQDALRPDVWLLRNDAHSLYHKRSPPAKESALSKCQSCGLSCSSSLCQRCDSLLTCPPASKPSAFPSKASTHDSLAHGASLREKYPGQTQGLDRLPHLHSKSKPSTTPTSRCGFCNRPGATNTCTQCSKVSCDACLSAYHYDPCYKKSELHKFMPNNQLNYKSTQLSHLVYR
B6: Tektin-4 (Homo sapiens), Q8WW24 (parent)
chain: MAQTVPPCELPCKEYDVARNTGAYTSSGLATASFRTSKYLLEEWFQNCYARYHQAFADRDQSERQRHESQQLATETQALAQRTQQDSTRTVGERLQDTHSWKSELQREMEALAAETNLLLAQKQRLERALDATEVPFSITTDNLQCRERREHPNLVRDHVETELLKEAELIRNIQELLKRTIMQAVSQIRLNREHKETCEMDWSDKMEAYNIDETCGRHHSQSTEVQAHPYSTTFQESASTPETRAKFTQDNLCRAQRERLASANLRVLVDCILRDTSEDLRLQCDAVNLAFGRRCEELEDARYKLHHHLHKTLREITDQEHNVAALKQAIKDKEAPLHVAQTRLYLRSHRPNMELCRDAAQFRLLSEVEELNMSLTALREKLLEAEQSLRNLEDIHMSLEKDIAAMTNSLFIDRQKCMAHRTRYPTILQLAGYQ
partner: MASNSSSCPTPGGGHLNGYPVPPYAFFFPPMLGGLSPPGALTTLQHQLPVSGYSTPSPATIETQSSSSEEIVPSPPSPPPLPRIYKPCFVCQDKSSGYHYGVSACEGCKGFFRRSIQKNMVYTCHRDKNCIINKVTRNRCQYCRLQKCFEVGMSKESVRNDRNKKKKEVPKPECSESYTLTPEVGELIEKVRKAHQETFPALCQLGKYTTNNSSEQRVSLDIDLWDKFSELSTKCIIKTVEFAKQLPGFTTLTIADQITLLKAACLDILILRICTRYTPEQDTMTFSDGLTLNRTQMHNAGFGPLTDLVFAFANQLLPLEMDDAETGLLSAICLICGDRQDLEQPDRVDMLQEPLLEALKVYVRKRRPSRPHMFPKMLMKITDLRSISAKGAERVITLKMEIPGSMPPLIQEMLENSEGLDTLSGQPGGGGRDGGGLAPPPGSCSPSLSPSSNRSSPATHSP

The first experiment covers variants of B1. The following applies: with lura1_human LURAP1, Q96LR2.
Regarding T523I, the “effect of a mutation on the interaction” value is recorded as “with no effect”.
Same read-out and setting: then T361A, with “with no effect”.

The variants in another experiment derive from B2. The following applies: with tri18_human MID1, O15344.
I340V: the “effect of a mutation on the interaction” value was “with no effect”.
Same read-out and setting: for Y61S the value was “with no effect”; for K123R, “with no effect”; for I147V, “with no effect”.
Consider K281Q, for which the “effect of a mutation on the interaction” value is on record as “with no effect”.
With E77K, the “effect of a mutation on the interaction” value was “with no effect”.
R457H: the “effect of a mutation on the interaction” value was “with no effect”.
R449Q: the “effect of a mutation on the interaction” value is on record as “with no effect”.

In a further experiment the parent is B3. The note with it: with baf_human BANF1, O75531.
In the case of P183T, the “effect of a mutation on the interaction” value is “with no effect”.
D72V: the “effect of a mutation on the interaction” value is on record as “with no effect”.
Still for that read-out and setting: for S54F the value was “with no effect”; for R203H, “with no effect”; for G156S, “with no effect”.

Another experiment covers variants of B4. The following applies: with go45_human BLZF1, Q9H2G9.
Consider V174A, for which the “effect of a mutation on the interaction” value is “disrupting interaction strength”.
Same read-out and setting: for R193Q the value was “with no effect”.

In the next experiment the parent is B5. The following applies: with traf2_human TRAF2, Q12933.
Sequence of traf2_human TRAF2, Q12933 (Q12933 whole entry): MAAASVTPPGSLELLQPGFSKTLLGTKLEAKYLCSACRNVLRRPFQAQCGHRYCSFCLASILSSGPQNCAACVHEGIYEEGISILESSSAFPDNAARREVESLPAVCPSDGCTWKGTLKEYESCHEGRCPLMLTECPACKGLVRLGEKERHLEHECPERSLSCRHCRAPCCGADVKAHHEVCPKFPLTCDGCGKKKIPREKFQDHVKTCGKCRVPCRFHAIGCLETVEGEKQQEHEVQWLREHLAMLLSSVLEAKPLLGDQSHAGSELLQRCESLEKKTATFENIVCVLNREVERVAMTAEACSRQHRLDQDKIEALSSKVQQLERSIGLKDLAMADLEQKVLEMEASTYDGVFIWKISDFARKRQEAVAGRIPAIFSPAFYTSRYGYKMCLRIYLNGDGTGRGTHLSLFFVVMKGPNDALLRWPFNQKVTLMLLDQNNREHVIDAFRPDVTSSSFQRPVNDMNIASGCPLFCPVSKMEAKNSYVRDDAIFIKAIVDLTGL
As for L443F, the “effect of a mutation on the interaction” value is recorded as “disrupting interaction strength”.

The variants in the next experiment derive from B6. The following applies: with rara_human RARA.
For the variant I404T, the “effect of a mutation on the interaction” value is “disrupting interaction strength”.
Same read-out and setting: for C272S the value was “disrupting interaction strength”.
With A80V, the “effect of a mutation on the interaction” value is on record as “disrupting interaction strength”.
For the variant M374T, the “effect of a mutation on the interaction” value was “with no effect”.

Source of the values: IntAct's records for PubMed 31515488.
